Experimental data from the DeepSol protein solubility set.

Experiment: soluble on expression in E. coli; label from the status in PepcDB or PDB records

MGSDKIHHHHHHMTDHVIAHAFSYRHASRRKPALVDLTLKISRGERVLLLGASGSGKSTLLAAIAGVLADEDGEHSGELQVSGTPGMVLQDPDSQVISSRVGDDVAFGCENMCVPRDQIWPRVTQALAQVGLDLPLDHPTSELSGGQKQRLALAGVIAMGADIVLLDEPTANLDPDGVREVVSNISRAVETTGATMIVVEHRVSTWLDHVDRIIALGPDSRVLADGPARDVIAKHGRELSELGIWVPENDPQLPAALTPTHSDTAIHARELAVGWNQPLGTYGFDIPAGASTVITGANGKGKSTLLLTLAGLLPAHSGRVEVAHNIARGLHTDPLRWKSKELSSRFGFVFQDPEHQFVAATVREEMRVGLHDHNHLARADLLLERLRLDHLAEANPFTLSGGQKRRLSVATILVNTPDVVFLDEPTFGQDRTTFIELVTLLRELTDAGTTVVSITHDELYRRCLGDKEIAL
soluble on expression in E. coli: not soluble

LKQRRKIANEVKIKNTLLEYAQQITQMGTFEYNVFTNTLFWSNEMYNIFELDRSVIPEINFIDSLIKEESEITHNRRKKNFQPGASYSDELKIRTVNGNEKVLISNGYVVNEENGLVVHGAIIDIT
soluble on expression in E. coli: not soluble

MATVKTVLVKGRCNSRGAYPLAVQVLHKRKKKVFYTGYSITPCEFDSFSGRVLFNGVYTMETVRRMNRTCRKICKILDKAIGILEREGNEYTTCDISRVYETLTGKVGFYSYFRERIRVLFDTGHEGTAKAYEATLHSMQKHLCKTDFPFAHLSSRLVIKYRDTLLEAGVGKNTIGFYLHNMKAVYRRGCLELNLVFPSPFCNIRIRSEKTVKQSLPMKQVKSLANLSLSVGTPECLARDVFMFSIYTRGMSFVDIAFLKKSDIFPGVIRYRRQKTGQLLEIGINRQIQNLLERYGDTSGDYLFPLVDESETPYSGYKKAYNRMRYALKKVS
soluble on expression in E. coli: not soluble

MVSVSEIRKAQRAEGPATILAIGTANPANCVEQSTYPDFYFKITNSEHKTELKEKFQRMCDKSMIKRRYMYLTEEILKENPNVCEYMAPSLDARQDMVVVEVPRLGKEAAVKAIKEWGQPKSKITHLIVCTTSGVDMPGADYQLTKLLGLRPYVKRYMMYQQGAFAGGTVLRLAKDLAENNKGARVLVVCSEVTAVTFRGPSDTHLDSLVGQALFGDGAAALIVGSDPVPEIEKPIFEMVWTAQTIAPDSEGAIDGHLREAGLTFHLLKDVPGIVSKNITKALVEAFEPLGISDYNSIFWIAHPGGPAILDQVEQKLALKPEKMNATREVLSEYGNMSSACVLFILDEMRKKSTQNGLKTTGEGLEWGVLFGFGPGLTIETVVLRSVAI
soluble on expression in E. coli: soluble

MGSDKIHHHHHHMTSLFYSPLIKYRVDVLPSSELKKENINTKALVVIGDGINREKISEDLELNPLLVRIVGKDSSKEEVEYNKVVLENAWLADLAPVEEIKSIDRRSLLRGEVKKAKKVDKPIYLSEYCNGLYKACNVCEFSCPYNAIKVDKKTGVNIDYTKCTSCGLCVASCPVSAIQFPSLSQNSIFELAKVKGEKRITCYRNTKNRGVKIPCLAMLSEVDIVLLRGSGNLTFECVGCELQDNLKDFIEVIKEYNERIGGISFYSPSEKIEAKETKELNTTPQSFYNRAEARRNISDELPYILFDVSIDNNRCTLCESCVNWCPTSAIMLRRSSGVEEIDFDPMKCIGCNICVNVCPESCKLEEGKTSEIPPNIASLTKVIKVEKSKSVNKEVRKLVGDELVRCRVCGAPIGSRKSLNHVKKIMIEKGASCEDEWLERCPKHRAEYAFQKQFSFNARFKPRGDLR
soluble on expression in E. coli: not soluble

MNVASRVVVNADRVKGTINRNIYGHFSEHLGRCIYEGLWVGEDSPIPNTNGIRNDVLEALKQMKIPVLRWPGGCFADEYHWKDGVGPREKRKRMVNTHWGGVIENNHFGTHEFMMLCELLGCEPYISGNVGSGTVQEMSEWVEYITFDGESPMANWRRENGREKPWRIKYWGVGNQNWGCGGNMRAEYYADLYRQFQTYLRNYGDNKLHKIACGANTADYHWTEVLMKQAAPFMHGLSLHYYTVPGPWEKKGPATGFTTDEWWVTLKKALFMDRLVTKHSAIMDVYDPDKRIDLIVDEWGTWYDVEPGTNPGFLYQQNSIRDALVAGATLHIFHRHCDRVRMANIAQLVNVLQSVILTEGERMLLTPTYHVFNMFKVHQDAELLDTWESVERTGPEGELPKVSVSASRAADGKIHISLCNLDFETGASVDIELRGLNGGVSATGTTLTSGRIDGHNTFDEPERVKPAPFRDFKLEGGHLNASLPPMSVTVLELTAG
soluble on expression in E. coli: soluble

MGSDKIHHHHHHVRLWIPHVTRPTVQPASSYATYSVMPGATVKELADLIGVSTTAVRDHLVHLQAEGMVEVTSERSGPGRPRLVYSLSEKAQKSFPKQYDRLISTLLRELIELEGEGKVEQLLDRVSQRLASEYADRMAGSDVAARLNELRALLEQRGVPAEIDPEGDVLRLFACPYYDVAADYPEVCSMERRMIEYVLGEKLVLEDTIRAGAHNCRFVLRPQDIPLTMTPPAADPTTEV
soluble on expression in E. coli: not soluble

MSASLRQSELTIRACILYEALGKNPIQLSYYNFCTRVGNGVMGFSDFEFWYDRFSNGNHDLDYDRSVNQVPKSLPEMPKSEKTEISEIGTQVDIVELLNLMKVSQSVAQKRKVVLDSLVVQFYEGESCSRLIFNDRYIIKYEKKDQGCTVSYSDNRASSDSRKKEINVTDEDYVELCIKDLKLLMENRMVHLKTFRFAIIAVATKEFREKCMKRVEEALKTAKSLTSRTVETTGGYLLELAQLMAIFPAKNVEEIRFTGDGTIGSEQLVSLEQWKNARKFDGMRDLNVPIEHFLHFETFIVYLSVFTEDDAVKLRDMIDRSAHFCYARLHFKSMNIRTLMGVFDVYNTEHNIVYQTPDQRYFNVRFYSNELQITKSAILNFQIE
soluble on expression in E. coli: not soluble

MAVSFKVKERKVMINGQPAKIRYAQTLKTGDMDLSEICDLTSKISAVSEGDVRSIINTVTGLVITGLKQGRAISLGELGRFRISLSSKAAKEGEEFTVENIRRARVLFLPGGDIRRACRQIRLKGINMLRPGEQQGGTPSVPDSPEGGGEQGSGGGGL
soluble on expression in E. coli: not soluble

MRPDFGTDGRLPSALSMGTADVAFHLATGGNPVPLAFTFGFEGRAPTLDSVRARVAERVHHVPALRYRIARDRRKFRRVDRIAVDRHVHEAWLPEDTDGSATSRLMLSRPMSTDDRPPWDVWLVHGPAERHTLVYRTDHTFQDGMGAAYTARALLGDHPEGGPAPQRPARPTAHGLADALGEVVAAFRAPTPKPAFDGDFTGRVDVCHADTPLARLRAIARAHGGTVTDVYLAALSHAVRTWYLKDTGSAHPPLPVSIPMSVRAPGEEYAPGNRMVTARLLLPCDEESPQRALARVVAGTGRLRESRRRDAMRLLLSASPRALGATVGTRLVRGAFVAGPVSSVNFGTALVHQGVAARRSAVFAGVASGIRCVTTLTSQHDTACLTVVHDEALATADELPDLWLAALLELERPLEHHHHHH
soluble on expression in E. coli: not soluble

MYHSLFESLCMVPDPRIERKKIYPLDFLLLIVFLSTLSGNTSWYEIEDYAEEYEEELKSLYEMLTGHQLMHTMPSHDTLNRSISLLDVEAFEGAYKRWIEGFISATSGKHICIDGKTMRGVKKLSFDTQSHVVSAFSPQDMCSLAQLYIDRKTNEIPAIHQLLDLLDLNGAVVSIDAIGTQTAIAEQIIDKGGNYVLCVKANQSLSLQEIEAYFCPLFQKHILLDEQTELSHGRIETRRYESILNPLEIEANEVLTRWKGLRSIHKVVRKRRDKKSDKTSEEVAYYISSLTDVSSLKQAIRGHWAIENKLHHCLDVYFGHDASHKRTRNVAQIMDIIQKINLLIIERLKTNMKSSIPRIQKKLARMKPQQLITIQF
soluble on expression in E. coli: not soluble

MGSDKIHHHHHHMGNRTRTIAGKDITRSVADALQYISYYHPPDYIRSLSQAYAREQSPAAKNAIGQILLNSRMAAFGRRPICQDTGLVVVFAKVGMETRIKSTISFADLVNEGVRQAYLDPDNPLRASIVADPLAGRVNTRDNTPAVVHVDLVQGNQIEITIAAKGGGSENKARFTTLNPSASVSDWVIDTVSTLGSGWCPPGLISVGIGGSAEKAMLLAKEAMNKPIDMSELIARGPSSAEEALRIELYERINALGIGAQGLGGLTTVVDVKVATYPTHAASKPVALIPQCAANRHLKFTLDGSGPIRVQPPDLCEWPDIGTDELSPAGVRRVNLDALTKEETASWRCGETLLLSGKMLTGRDAAHKRMVELIDAGKPLPFDLQGRVIYYVGPVRAVRDEVVGPAGPTTSSRLDDFTDKVLAETGLFAMVGKAERGRAAIESIVRHKTPYLIAVGGAAYLISKSIKSARLIAFEDLGMEAVYEFEVQDMPVIMAVDVDGNSIHNSGPLEWRKRMAADSIARNIGV
soluble on expression in E. coli: not soluble

SLTRRADDGPLVLTGANAPMSATTASGQADASFFDPGLLRRFGITRVGDVTGLDIIGIPVWFAARPNSRGLSVSQGKGLFADQARLSAIMEAIEGAVAEETRRHVTAFGSIEEMRNKGVPLIPFETVGRIDPDALDLRKERAWVKGTSIRQQQEVFAPYELIGMDFRAEFPWDRQAFRMSSQGLAAGFEQDHAVLHALLELIENDASFLVDTFETRAITPQPFLLSAGMDSLLDDLIQHLSNIGLPPSFFDLTNALGVPVVMASLPRSLQAEDGPATRSAAGAACRPNTHAAAMAALLEAIQSRLTDISGARDDLSPLRYQRDLSTSGPTASRAQPLRQMPADLNFPESDLSLPPWRQLAEHLFARGIEDIHVFPLETEVSGLHVVRILASGLAPAGGGLQHISPRTLDHLLNLGGT
soluble on expression in E. coli: soluble

SILEGGGVMNLNPGNNLLHQPPAWTDSYSTCNVSSGFFGGQWHEIHPQYWTKYQVWEWLQHLLDTNQLDANCIPFQEFDINGEHLCSMSLQEFTRAAGTAGQLLYSNLQHLKWNGQCSSDLFQSTHNVIVKTEQTEPSIMNTWKDENYLYDTNYGSTVDLLDSKTFCRAQISMTTTSHLPVAESPDMKKEQDPPAKCHTKKHNPRGTHLWEFIRDILLNPDKNPGLIKWEDRSEGVFRFLKSEAVAQLWGKKKNNSSMTYEKLSRAMRYYYKREILERVDGRRLVYKFGKNARGWRENEN
soluble on expression in E. coli: soluble

MGSDKIHHHHHHMSNFNFDFAENDFGPLAAKMRPTSLEQYFGQSHLIGEGKPLRKAIQAGHIYSMIFWGPPGTGKTTLAEIIAQRINAEVERISAVTSGIKEIREAIDRAKQNRLADRKTILFVDEVHRFNKSQQDAFLPHIEDGTVIFIGATTENPSFELNNALLSRARVYVLKSLTTAEIEQVLQQAVEDPKRGLGKERLILEENLLQVLAEYVNGDARLALNCLELMVDMADETENGKKIDRTLLKEVLGERQARFDKQGDRFYDLISALHKSVRGSAPDAALYWYARILTAGGDPLYVARRLLAIASEDVGNADPRAMQVALAAWDCFSRVGAYEGERAIAQAIIYLSVAPKSNAVYTAFNTAKQQAKDLPDYDVPPHLRNAPTNLMKELGYGTEYRYAHDEPNAYAAGENYFPPELKDTQYYFPTNRGMEIQIKEKLERLREQDKSAVKKRYK
soluble on expression in E. coli: not soluble

MGSDKIHHHHHHMPSETRLPNFIRTLIFALSFIFLNACSEQTAQTVTLQGETMGTTYTVKYLSNNRDKLPSPAEIQKRIDDALKEVNRQMSTYQPDSEISRFNQHTAGKPLRISSDFAHVTAEAVHLNRLTHGALDVTVGPLVNLWGFGPDKSVTREPSPEQIKQAASYTGIDKIILKQGKDYASLSKTHPKAYLDLSSIAKGFGVDKVAGELEKYGIQNYLVEIGGELHGKGKNARGEPWRIGIEQPNIVQGGNTQIIVPLNNRSLATSGDYRIFHVDKSGKRLSHIINPNNKRPISHNLASISVVADSAMTADGLSTGLFVLGETEALKLAEREKLAVFLIVRDKGGYRTAMSSEFEKLLR
soluble on expression in E. coli: not soluble

MSCGSNRGNEMKDKYDVLVIGAGPAGSIAAKTAAEKGLDVLLIEKRQEIGDPVRCAEGVNKECLKKHVEIDKRWICADLKGSCIFSPDGTKIEMAEEISGGEVGYVLERKVFDRALAEHAATAGAEVRVKTRATGLIIEDDFVKGARLMHLGKEYEVRASIVIGADGVESKVGRWAGIDTALKPVDVETCAQYLIAGADINQEYCEFYIGNEMAPGGYVWVFPKGGGKANVGIGILGSKMGKFKPRPVDYLNDFVQKKFPDARIVEMVFGGVPVSGSIEKTSVNGLMLVGDAARQSDPITGGGILNAMDAGKLAGEAAYEAISAGDVSVVKLEEVYEKKWRDTVGHDIDMSLIVKNCFINLTDDDLDSLAHSLKDVKFERMSLLDLLQALFKANKKLLWDLRVLFKDAAKEVIKNKTLEHHHHHH
soluble on expression in E. coli: soluble
